The target of this data set is 2392/10 ZFP-VP16 fusion (Artificial Sequence). Nature of the data set: cell_activity; Epo secretion, 2392/10-7 CHO cells; additional three-fold over CMV promoter. The text has this: Three different erythropoietin (Epo)-expressing constructs were constructed. In the first, Epo expression was controlled by a CMV promoter fused to a β-globin intron (CMV). In the second, Epo expression was controlled by a CMV promoter containing ten upstream copies of the 2392/10 binding site, fused to a β-globin intron (CMVz10, Example 6). In the third, Epo expression was controlled by a SRα promoter with six additional copies of the 2392/10 binding site immediately upstream of the promoter (SRαZ6, Example 5). The three constructs were transiently transfected into either parental DG44 CHO cells or the ZFP-expressing 2392/10-7 cell line. After 24 hours, Epo secretion was measured by ELISA.

B1: CMVz10 promoter target-site insert (dsDNA)
DNA 1: ACGCGTTCATTCCACAGCTCTCATTCCACAGCTCTCATTCCACAGCTCTCATTCCACAGCTCTCATTCCACAGCTCTCATTCCACAGCTCTCATTCCACAGCTCTCATTCCACAGCTCTCATTCCACAGCTCTCATTCCACAGTCACGCGT
DNA 2: ACGCGTGACTGTGGAATGAGAGCTGTGGAATGAGAGCTGTGGAATGAGAGCTGTGGAATGAGAGCTGTGGAATGAGAGCTGTGGAATGAGAGCTGTGGAATGAGAGCTGTGGAATGAGAGCTGTGGAATGAGAGCTGTGGAATGAACGCGT
B1: the activity was 3 fold activation.

The values above are taken from patent publication US20060063231, “Compositions and methods for protein production” (Sangamo BioSciences, Inc., published 2006).
